Target: CD3 on T cells (Homo sapiens (Human), UniProt P07766 23-207; P04234 22-171; P09693 23-182)
Assay: cell-based or functional assay

CD3 on T cells, sequence (P07766 23-207 limits assumed, chain 1 of 3): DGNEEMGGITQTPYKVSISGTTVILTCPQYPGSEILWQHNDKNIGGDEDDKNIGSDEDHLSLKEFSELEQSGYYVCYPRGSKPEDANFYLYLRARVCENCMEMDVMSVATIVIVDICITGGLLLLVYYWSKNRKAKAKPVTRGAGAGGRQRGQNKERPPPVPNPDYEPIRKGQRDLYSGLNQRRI
CD3 on T cells, sequence (P04234 22-171 limits assumed, chain 2 of 3): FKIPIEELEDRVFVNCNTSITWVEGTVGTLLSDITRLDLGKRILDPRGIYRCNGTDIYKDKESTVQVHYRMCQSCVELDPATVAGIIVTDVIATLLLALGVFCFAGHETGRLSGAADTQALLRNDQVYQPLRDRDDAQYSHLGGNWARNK
CD3 on T cells, sequence (P09693 23-182 limits assumed, chain 3 of 3): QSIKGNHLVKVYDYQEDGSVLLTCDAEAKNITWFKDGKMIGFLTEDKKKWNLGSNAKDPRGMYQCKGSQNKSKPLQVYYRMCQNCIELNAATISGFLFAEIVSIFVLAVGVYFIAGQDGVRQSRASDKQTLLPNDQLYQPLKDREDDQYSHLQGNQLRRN

B1: v39009 (bispecific) (other)
heavy chain 1 (H1): EVQLVESGGGLVQPGGSLRLSCAASGVTFNYYGMSWIRQAPGKGLEWVASITSSGGRIYYPDSVKGRFTISRENTQKTLYLQMNSLRAEDTAVYYCTLDGRDGWVAYWGQGTLVTVSSASTKGPSVFPLAPSSKSTSGGTAALGCLVKDYFPEPVTVSWNSGALTSGVHTFPAVLQSSGLYSLSSVVTVPSSSLGTQTYICNVNHKPSNTKVDKKVEPKSCDKTHTCPPCPAPEAAGGPSVFLFPPKPKDTLMISRTPEVTCVVVSVSHEDPEVKFNWYVDGVEVHNAKTKPREEQYNSTYRVVSVLTVLHQDWLNGKEYKCKVSNKALPAPIEKTISKAKGQPREPQVYVYPPSRDELTKNQVSLTCLVKGFYPSDIAVEWESNGQPENNYKTTPPVLDSDGSFALVSKLTVDKSRWQQGNVFSCSVMHEALHNHYTQKSLSLSPGGGGGSGQVQLVESGGGLVQPGGSLRLSCSVSGIDLSSNPMIWVRQAPGKGLQYIGIIDTDGSTYYADWAKGRFTISKDSTTVYLQINSPRAEDTAVYYCARRLHGSSNGYYDDLWGQGTLVTVSSGGGGSGGGGSGGGGSGGGGSDGQMTQSPSSVSASVGDRVTITCQASQSIYSYLSWYQQKPGQRPKLLIYKASTLASGVPSRFSGSGSGTDFTLTISSVQPEDFATYYCQQGYTVTNVDKNTFGGGTKVEIK
light chain (L1): NFMLTQPHSVSESPGKTVTISCKRNTGNIGSNYVNWYQQHEGSSPTTIIYRNDKRPDGVSDRFSGSIDRSSKSASLTISNLKTEDEADYFCQSYSSGFIFGGGTKLTVLGQPKAAPSVTLFPPSSEELQANKATLVCLISDFYPGAVTVAWKADSSPVKAGVETTTPSKQSNNKYAASSYLSLTPEQWKSHRSYSCQVTHEGSTVEKTVAPTECSGGGGSGDRPWNPPTFSPALLVVTEGDNATFTCSFSNTSESFVLNWYRMSPSNQTDALAAFPEDRSQPGQDARFRVTQLPNGRDFHMSVVRARRNDSGTYLCGAASLAPKAQIKESLRAELRVTE
heavy chain 2 (H2): QVQLVESGGGLVQPGGSLRLSCSVSGIDLSSNPMIWVRQAPGKGLQYIGIIDTDGSTYYADWAKGRFTISKDSTTVYLQINSPRAEDTAVYYCARRLHGSSNGYYDDLWGQGTLVTVSSGGGGSGGGGSGGGGSGGGGSDGQMTQSPSSVSASVGDRVTITCQASQSIYSYLSWYQQKPGQRPKLLIYKASTLASGVPSRFSGSGSGTDFTLTISSVQPEDFATYYCQQGYTVTNVDKNTFGGGTKVEIKAAEPKSSDKTHTCPPCPAPEAAGGPSVFLFPPKPKDTLMISRTPEVTCVVVSVSHEDPEVKFNWYVDGVEVHNAKTKPREEQYNSTYRVVSVLTVLHQDWLNGKEYKCKVSNKALPAPIEKTISKAKGQPREPQVYVLPPSRDELTKNQVSLLCLVKGFYPSDIAVEWESNGQPENNYLTWPPVLDSDGSFFLYSKLTVDKSRWQQGNVFSCSVMHEALHNHYTQKSLSLSPG
EC50 (read off the curve); hybrid PD-1/PD-L1 reporter gene assay, delta RLU, PD-1+ Jurkat T cells with SNU-620 cells, bottom right graph: ~0.05 nM
EC50 (read off the curve); hybrid PD-1/PD-L1 reporter gene assay, delta RLU, PD-1+ Jurkat T cells with SNU-620 cells, bottom right graph; v39009 varied in the presence of atezolizumab: ~0.04 nM
